The test system of data set [1] is male Hartley guinea pigs. Kind of data set: Photosensitization test (Adjuvant & Strip method). The data set is classed as in vivo. On the procedure: A photosensitization test for the compound II-4 was carried out according to an Adjuvant & Strip method using male Hartley guinea pigs. After four sites to be sensitized were selected at the cervical and dorsal skin of the guinea pigs, an emulsion of WFI and FCA were intradermally injected to each of the selected sites. The sensitized sites were stripped only in a degree of inducing weak erythema, and covered with 0.01 PBS (excipient group), the compound II-4 (test group) and CP (chlorpromazine; positive control group) in a non-occlusive manner. After two hours, long wave-length UV light of about 10 J/cm^2 was irradiated to the test substance-applied sites. 24 hrs, 48 hrs and 72 hrs after UV irradiation, signs of photosensitization were investigated.

For data set [2], the system named is male Hartley guinea pigs. Put plainly: Phototoxicity test. As for the experimental part: Each of the test samples was applied to the skin of guinea pigs, and the guinea pigs were exposed to ultraviolet A (UVA) radiation. Then, potency to induce phototoxicity was evaluated. Induction of phototoxicity, which is an abnormal response of the skin to a photo-stimulus such as ultraviolet or visible light, occurs non-immunologically by a chemical. Unlike the allergic response, the degree of phototoxicity can be expected by sufficient intensity of radiation and drugs.
CP and 8-MOP were prepared at a final concentration of 10% in DMSO and then diluted to 1%. Each of guinea pigs was fixed on a fixing plate, and the skin of the guinea pig was covered with 50 μl of each of the test samples. Then, the right area of the skin was not exposed to UV light, and the left area of the skin was exposed to UVA light (320 to 380 nm) of 15 J/cm^2, which was irradiated in a distance of about 10 cm for about 2 hrs. 24 hrs, 48 hr and 72 hrs after UVA irradiation, photosensitization in the treatment group was evaluated in comparison with that in the positive control groups.

Data set [3] in a line: Color change test (storage stability in solution). The data set is classed as physicochemical. Further details: key: −: no or very slight noticeable change (colorless or light yellow); +: slight; ++: moderate; +++: extreme. The settings on record: 50 mM in 50 mM potassium phosphate pH 7.0, 40° C. As for the experimental part:
The compounds I to IV synthesized in Example 4 and vitamin C (Sigma Aldrich) were independently dissolved in 50 mM potassium phosphate of pH 7.0 at a concentration of 50 mM, and stored in an incubator at 40° C. for three weeks. Thereafter, the compounds and vitamin C were evaluated for color change according to the standard criteria, and the results are given in Table 2, below.

The target of a further data set is mushroom tyrosinase (Agaricus bisporus, UniProt C7FF04). Kind of data set: Inhibitory activity against tyrosinase. The settings on record: tyrosine substrate, pH 6.8, 37° C.; read-out: IC50 (compound concentration to inhibit 50% of tyrosinase activity). The data set is classed as biochemical, mushrooms. As for the experimental part: Tyrosinase was purchased from the Sigma Company, which was isolated from mushrooms and purified. Tyrosin as a substrate for the purified mushroom tyrosinase was prepared by dissolving in 0.05 M potassium phosphate buffer (pH 6.8) in an amount of 0.3 mg/ml. The compounds and vitamin C were dissolved in distilled water at a concentration of 10 mM, and diluted with distilled water to suitable concentrations.
Chain of mushroom tyrosinase (C7FF04 1-392): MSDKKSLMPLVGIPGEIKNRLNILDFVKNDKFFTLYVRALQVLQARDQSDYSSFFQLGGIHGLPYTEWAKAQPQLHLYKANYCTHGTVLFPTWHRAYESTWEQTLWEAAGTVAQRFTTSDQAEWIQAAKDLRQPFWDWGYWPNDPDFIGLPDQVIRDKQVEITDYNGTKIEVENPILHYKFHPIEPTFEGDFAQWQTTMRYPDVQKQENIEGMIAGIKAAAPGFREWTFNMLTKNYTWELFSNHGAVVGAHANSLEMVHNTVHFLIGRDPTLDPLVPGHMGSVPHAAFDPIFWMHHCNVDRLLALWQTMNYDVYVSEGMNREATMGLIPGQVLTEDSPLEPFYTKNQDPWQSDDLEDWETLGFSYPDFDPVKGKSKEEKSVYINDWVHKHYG
0.5 ml of the tyrosine solution and 0.5 ml of a buffer were put into a test tube, and 0.5 ml of the diluted compound or vitamin C was added to the test tube. After each test tube was incubated in an incubator at 37° C. for 10 min, 0.05 ml of tyrosinase (2,000 U/ml) was added to each test tube, followed by incubation at 37° C. for 10 min. A sample added with 0.5 ml distilled water instead of the compound was used as a control. Thereafter, each test tube was rapidly cooled on ice to terminate the reaction. Absorbance at 475 nm was measured using a spectrophotometer. Inhibition rate against tyrosinase was calculated using the measured absorbance according to the following Equation 1, and IC50 values (compound concentration to inhibit 50% of tyrosinase activity) were then determined. Inhibition rate (%)=(A−B)/A×100 Equation 1
wherein, A is an absorbance at 475 nm of a sample not containing an inhibitor, and B is an absorbance at 475 nm of a sample containing an inhibitor.

[4] abbreviates: Areas exposed to UVA, applied concentration 0.1%.
The mark [5] stands for this setting: Areas exposed to UVA, applied concentration 1%.
Where [6] appears, read: Areas exposed to UVA, applied concentration 10%.
[7] abbreviates: Areas not exposed to UVA, applied concentration 0.1%.
Setting [8] is: Areas not exposed to UVA, applied concentration 1%.
Where [9] appears, read: Areas not exposed to UVA, applied concentration 10%.

Numbered stars: 1 amine (or outer) side, 2 acyl side, 3 side chain; on linkers, the order of the positions; unused ones are H or OH. Ends that are not written are not given here. * marks the point of attachment. Suc = O=C(CCC(=O)[*:2])[*:1]; Propyl = CCC*

Take `CN(C)CCCN1c2ccccc2Sc2ccc(Cl)cc21` [CP, Chlorpromazine]: the Stimulation index in the data set on male Hartley guinea pigs [1] (Areas exposed to UVA) was 5.8; with male Hartley guinea pigs [1] (Areas not exposed to UVA) it was 0.0. Also, the Photosensitization index in the data set on male Hartley guinea pigs [1] (index of UVA irradiation site minus index of non-irradiation site) is 5.8. Also, the “Total score/Site No.” value with male Hartley guinea pigs [2] (male, Hartley, guinea pig, in vivo) is recorded as 0 + 0/10.
Regarding `O=C1O[C@H]([C@@H](O)CO)C(O)=C1O` [Vitamin C, ascorbic acid], in data set [3], the “Color change After 1 week” value is on record as “+” and the “Color change After 2 weeks” value was “+++”.
With `COc1c2occc2cc2ccc(=O)oc12` [Compound 8-MOP, 8-methoxypsoralen], the Evaluation result is “Clearly irritating” with male Hartley guinea pigs [2] (setting [4]); “Extremely irritating” in the data set with male Hartley guinea pigs [2] (setting [5]); “Extremely irritating” in the data set on male Hartley guinea pigs [2] (setting [6]); “Practically non-irritating” in the data set with male Hartley guinea pigs [2] (setting [7]); “Clearly irritating” in the data set with male Hartley guinea pigs [2] (setting [8]); “Clearly irritating” in the data set with male Hartley guinea pigs [2] (setting [9]). Also, the Mean score is on record as 2.3 in the data set with male Hartley guinea pigs [2] (setting [4]); 3.2 with male Hartley guinea pigs [2] (setting [5]); 4.0 in the data set on male Hartley guinea pigs [2] (setting [6]); 0 in the data set on male Hartley guinea pigs [2] (setting [7]); 1.4 in the data set with male Hartley guinea pigs [2] (setting [8]); 1.4 with male Hartley guinea pigs [2] (setting [9]).
Consider “5-(succinyl-lysyl-threonyl-threonyl-lysyl-serine)ascorbic acid [Compound I-4]”, for which, in data set [3], the “Color change After 1 week” value is reported as “−”, the “Color change After 2 weeks” value is recorded as “+” and the “Color change After 3 weeks” value is given as “+”.
On to “5,6-di(succinyl-glycyl-lysyl-histidine)ascorbic acid [III-2]”, for which, in data set [3], the “Color change After 1 week” value is given as “−”, the “Color change After 2 weeks” value was “+” and the “Color change After 3 weeks” value is “+”.
Consider “6-(succinyl-glycyl-lysyl-histidine)ascorbic acid [II-2]”, for which, at mushroom tyrosinase, the IC50 came to 700 µM. In data set [3], the “Color change After 1 week” value is “−”, the “Color change After 2 weeks” value is on record as “+” and the “Color change After 3 weeks” value is “+”.
Turning to `NCCCCC(NC(=O)C(Cc1cnc[nH]1)NC(=O)CNCCCOC1=C(O)C(C(O)CO)OC1=O)C(=O)O` (centres unmarked) [IV-1, 2-(propyl-glycyl-histidyl-lysine)ascorbic acid], in data set [3], the “Color change After 1 week” value is on record as “−”, the “Color change After 2 weeks” value is recorded as “+” and the “Color change After 3 weeks” value is given as “++”.
For the compound `NCCCCC(NC(=O)C(Cc1cnc[nH]1)NC(=O)CNC(=O)CCC(=O)OC(CO)C1OC(=O)C(O)=C1O)C(=O)O` (centres unmarked) [Compound I-1, 5-(succinyl-glycyl-histidyl-lysine)ascorbic acid], in data set [3], the “Color change After 1 week” value is on record as “−”, the “Color change After 2 weeks” value is “+” and the “Color change After 3 weeks” value was “+”.
`O=C(CCC(=O)OCC(O)C1OC(=O)C(O)=C1O)NCC(=O)N1CCCC1C(=O)N1CC(O)CC1C(=O)O` (centres unmarked) [II-3, 6-(succinyl-glycyl-prolyl-hydroxyproline)ascorbic acid]: in data set [3], the “Color change After 1 week” value is on record as “−”, the “Color change After 2 weeks” value is given as “+” and the “Color change After 3 weeks” value is “+”.
Regarding `NCCCCC(NC(=O)C(Cc1cnc[nH]1)NC(=O)CNC(=O)CCC(=O)OCC(O)C1OC(=O)C(O)=C1O)C(=O)O` (centres unmarked) [II-1, 6-(succinyl-glycyl-histidyl-lysine)ascorbic acid], the IC50 on mushroom tyrosinase turned out to be 650 µM. In addition, in data set [3], the “Color change After 1 week” value was “−”, the “Color change After 2 weeks” value is “+” and the “Color change After 3 weeks” value is listed as “+”.
In the case of `O=C(CCC(=O)OC(CO)C1OC(=O)C(O)=C1O)NCC(=O)N1CCCC1C(=O)N1CC(O)CC1C(=O)O` (centres unmarked) [Compound I-3, 5-(succinyl-glycyl-prolyl-hydroxyproline)ascorbic acid], in data set [3], the “Color change After 1 week” value is “−”, the “Color change After 2 weeks” value is “+” and the “Color change After 3 weeks” value is “+”.
On to “5,6-di(succinyl-glycyl-histidyl-lysine)ascorbic acid [III-1]”, for which, in data set [3], the “Color change After 1 week” value is listed as “−”, the “Color change After 2 weeks” value was “+” and the “Color change After 3 weeks” value is “+”.
Regarding `O=C(CCC(=O)OCC(OC(=O)CCC(=O)NCC(=O)N1CCCC1C(=O)N1CC(O)CC1C(=O)O)C1OC(=O)C(O)=C1O)NCC(=O)N1CCCC1C(=O)N1CC(O)CC1C(=O)O` (centres unmarked) [III-3, 5,6-(succinyl-glycyl-prolyl-hydroxyproline)ascorbic acid], in data set [3], the “Color change After 1 week” value is listed as “−”, the “Color change After 2 weeks” value is reported as “+” and the “Color change After 3 weeks” value was “+”.
On to “2-(propyl-lysyl-threonyl-threonyl-lysyl-serine(SEQ ID NO:1))ascorbic acid ({ascorbic acid-Propyl}-KTTKS) [IV-4]”, for which, in data set [3], the “Color change After 1 week” value is given as “−”, the “Color change After 2 weeks” value was “+” and the “Color change After 3 weeks” value is “++”.
“5,6-di(succinyl-lysyl-threonyl-threonyl-lysyl-serine(SEQ ID NO:1))ascorbic acid ({ascorbic acid-Suc}-KTTKS; also: two succinyl-linked peptides on one ascorbic acid) [III-4]”: in data set [3], the “Color change After 1 week” value was “−”, the “Color change After 2 weeks” value is listed as “+” and the “Color change After 3 weeks” value is on record as “+”.
As for `NCCCC[C@H](NC(=O)CNC(=O)CCC(=O)OC(CO)C1OC(=O)C(O)=C1O)C(=O)N[C@@H](Cc1c[nH]cn1)C(=O)O` (some centres unmarked) [Compound I-2, 5-(succinyl-glycyl-lysyl-histidine)ascorbic acid], in data set [3], the “Color change After 1 week” value is “−”, the “Color change After 2 weeks” value is “+” and the “Color change After 3 weeks” value is “+”.
Regarding `O=C1OC(C(O)CO)C(O)=C1OCCCNCC(=O)N1CCC[C@H]1C(=O)N1CC(O)C[C@H]1C(=O)O` (some centres unmarked) [IV-3, 2-(propyl-glycyl-prolyl-hydroxyproline)ascorbic acid], in data set [3], the “Color change After 1 week” value is “−”, the “Color change After 2 weeks” value is “+” and the “Color change After 3 weeks” value is recorded as “++”.
For “2-(propyl-glycyl-lysyl-histidine)ascorbic acid [IV-2]” the same measures were “−”, “+” and “++”.

The values are drawn from patent US7521477B2, “Vitamin C derivatives with peptide, preparation method thereof and composition comprising the same” (Peptron Co., Ltd., priority 2003, dated 2009).
